Measurements: patent publication US7531500B2, “Preventing airway mucus production by administration of EGF-R antagonists” (The Regents of the University of California, priority 1998, dated 2009)

B1: IL-13: recombinant murine IL-13 in rats; recombinant human IL-13 in chemotaxis (R&D systems) (protein, UniProt P20109 19-131, looked up)
Interleukin-13: APGPVPRSVSLPLTLKELIEELSNITQDQTPLCNGSMVWSVDLAAGGFCVALDSLTNISNCNAIYRTQRILHGLCNRKAPTTVSSLPDTKIEVAHFITKLLSYTKQLFRHGPF

Experiments:
[1] = tested on: rat nasal septal epithelium; assay: fMLP-induced degranulation and regranulation of goblet cells in rat nasal epithelium; assay type: in vivo
Method: Nasal Tissue Preparation. At various times after inhalation, rats were anesthetized with pentobarbital sodium (65 mg/kg, i.p.). The heart of the animal was exposed, a blunt-ended needle was inserted from the apex of the left ventricle into the ascending aorta, and the systemic circulation was perfused with 1% paraformaldehyde. An incision in the right atrium provided an outlet for the fixative. The eyes, lower jaws, skin, and musculature were removed, and the head was immersed in a large volume of the same fixative for 24 h. […]
Counting of Neutrophils in Nasal Epithelium. Neutrophils were counted in high power fields of the epithelial layer stained with 3,3′-diaminobenzidine at magnification ×400. The number of neutrophils within the nasal sepal epithelium (from the basement membrane to cell apices) was determined by counting the number of nuclear profiles per unit of basal lamina length.
Quantification of Goblet Cell Degranulation and Regranulation. To assess goblet cell degranulation and regranulation, we measured the volume density of Alcian blue/PAS-stained mucosubstances on the mucosal surface epithelium using a semiautomatic imaging system according to a previously published method. […] Images of the nasal epithelium were recorded in high power fields with a phase contrast lens at x400, using an IMAXX Video System (PDI, Redmond, Wash.). […]

NCI-H292 cells = assay: Immunoassay of MUC5AC protein in NCI-H292 cells (Example 2); assay type: cell-based, human; conditions: 1 h incubation, protein at 24 h; IL-8 10^-8 M, fMLP 10^-8 M, TNFα 20 ng/ml
pathogen-free rats = assay: IL-13-induced goblet cell metaplasia in rat airways; assay type: in vivo
Method: Animals were anesthetized with pentobarbital [Nembutal sodium, 50 mg/kg, intraperitoneally (ip), Abbott Laboratories, North Chicago, Ill.] and allowed to breathe spontaneously. Vehicle (phosphate buffer solution, PBS) or IL-13 was instilled intratracheally via a 20-gauge Angiocath catheter (Beckton Dickinson, Sandy, Utah) through the mouth, while the laryngeal area was visualized using a high-intensity illuminator (FiberLite; Dolan Jenner Industries, Inc., Lawrence, Mass.). The […] tissues were examined 48 hours after instillation of IL-13. Various concentrations of IL-13 (recombinant murine IL-13; 5, 50, 100, and 500 ng/rat, R&D systems, Minneapolis, Minn.) were instilled into the trachea in […]. Sterile PBS (200 μl) was instilled into the trachea as controls. For examination of the relationship between IL-13-induced GC metaplasia and activation of EGFR, animals were pretreated 1 d before instillation of IL-13 and daily thereafter with a selective EGFR tyrosine kinase inhibitor (BIBX 1522; 1-30 mg/kg/day, ip; Boehringer Ingelheim, Ingelheim, Germany). Animals were euthanized 48 hours after instillation of IL-13. In preliminary studies, we noted that IL-13 causes leukocyte recruitment into the airways. We hypothesized that leukocyte recruitment results from IL-13-induced chemoattractant release from epithelium, and that this recruitment is involved in the IL-13-induced EGFR cascade leading to GC metaplasia. Groups of animals were euthanized 4, 8, 16, 24, and 48 hours after instillation of IL-13 (500 ng), and leukocytes were counted in airway tissue. […] Sigma chemical Co., St Louis, Mo.] or with a blocking antibody to interleukin-8 (IL-BAb; rabbit anti-human IL-8 antibody; Biosource, Camarillo, Calif.). […] In another series of studies, we instilled IL-8 Ab (10 μg/rat) intratracheally, along with IL-13; we repeated the instillation of anti-human IL-8 blocking antibody at 12 hour intervals until the animals were euthanized. Animals were euthanized with a lethal dose of pentobarbital (Nembutal sodium, 200 mg/kg, ip, Abbott Laboratories, North Chicago, Ill.), and the systemic circulation was perfused with 1% paraformaldehyde in Diethylpyrocarbonate (DEPC, Sigma chemical Co., St Louis, Mo.)-treated PBS via the left ventricle. For frozen sections, […] tissues were removed, placed in 4% paraformaldehyde overnight, and then placed in 30% sucrose for cryoprotection. The tissues were embedded in optimal cutting temperature (OCT, […]., Inc., Torrance, Calif.) compound. For plastic or paraffin sections, tissues were placed in 4% paraformaldehyde overnight, dehydrated with ethanol, and embedded in JB-4 plus monomer solution A (Polysclences, Inc., Warrington, Pa.) or in paraffin. The embedded tissues were cut as cross sections 4 μm thick and placed on glass slides. In all studies, the carina was examined to obtain consistent sampling. We measured AB/PAS-positive areas and total epithelial area, and we expressed the results as the percentage of AB/PAS area to total epithelial area. The analysis was performed with the public domain NIH IMAGE program (developed at the U.S. National Institutes of Health and available by anonymous FTP from zippy.nimh.gov. or floppy disk from the National Technical Information Service, Springfield, Va., part number PB95-500195GEI). […] For immunohistochemical localization of […], we used mouse anti-human IL-8 antibody (1:20; Biosource, Camarillo, Calif.). The sections were then incubated with biotinylated horse anti-mouse IgG (Vector Laboratories, Burlingame, Calif.) at 1:200 dilution for 1 hour at room temperature. Bound antibody was visualized according to standard protocols for avidin-biotin-peroxidase complex method. The measurement of MUC5AC protein also utilized the same method used for quantitative measurement of GC metaplasia in the epithelium. Animals were euthanized 4, 8, 16, 24, and 48 hours after instillation of IL-13 (500 ng), and leukocytes were counted in airway tissue. […]

human neutrophils = assay: Chemotaxis of human neutrophils (microchemotaxis chamber); assay type: cell-based; conditions: 10^-10, 10^-9, 5×10^-9 M
Method: Human neutrophils were purified from peripheral blood obtained from healthy donors. Neutrophil isolation was performed by standard techniques of Ficoll-Hypaque gradient separation, dextran sedimentation, and hypotonic lysis of erythrocytes. Cells were routinely >95% viable by trypan blue dye exclusion. To prevent endotoxin contamination, all solutions were passed through a […]. Chemotactic activity was assessed in 48-well microchemotaxis chamber (Neuroprobe, Cabin John, Md.), utilizing the leading front technique. Migration was measured as net movement of neutrophils ([…]) through a nitrocellulose filter (pore size, 3 μm) after 25 min at 37° C. The effect of IL-13 (10^−10, 10^−9, and 5×10^−9 M; recombinant human IL-13, R&D systems, Minneapolis, Minn.) is expressed as the distance traveled, compared to the random migration of neutrophils incubated with RPMI 1640.

[2] = IL-13 5, 50, 100, 500 ng/rat intratracheal, 48 hours, dose-dependently

| Molecule | area of MUC5AC-positive immunostaining ([1]; 4 h after fMLP aerosol (10^-7 M)) | AB/PAS-stained area of nasal epithelium ([1]; 4 h after fMLP aerosol (10^-7 M) intranasally for 5 min) | MUC5AC synthesis, stimulus alone without neutrophils (NCI-H292 cells) | leukocyte recruitment into airway epithelium (pathogen-free rats; IL-13 500 ng) | start of leukocyte recruitment (pathogen-free rats; IL-13 500 ng) | time of maximal leukocyte recruitment (pathogen-free rats; IL-13 500 ng) [h] | AB/PAS staining in rat airway epithelium (pathogen-free rats; [2]) | MUC5AC staining in rat airway epithelium (pathogen-free rats; [2]) | EGFR expression in airway epithelium (pathogen-free rats; instillation of IL-13) | staining of airway epithelium with anti-human IL-8 antibody (IL-8-like chemoattractant) (pathogen-free rats; instillation of IL-13) | TNFα expression in rat airway tissue (pathogen-free rats; instillation of IL-13, mainly in infiltrating neutrophils) | neutrophil movement (human neutrophils) |
| --- | --- | --- | --- | --- | --- | --- | --- | --- | --- | --- | --- | --- |
| CSCC[C@H](NC=O)C(=O)N[C@@H](CC(C)C)C(=O)N[C@@H](Cc1ccccc1)C(=O)O [fMLP, N-formyl-methionyl-leucyl-phenylalanine] | markedly decreased | markedly decreased | no effect | – | – | – | – | – | – | – | – | – |
| B1 | – | – | – | time-dependent leukocyte recruitment | approximately 8 hours | ≤ 24 | increased | increased | increased | positive staining | induced | decreased neutrophil movement dose-dependently |
